Measurements published in patent publication US12577311 (Dana-Farber, dated 2026).

Key:
Test in all cases: cell-based or functional assay
[1] = target: mouse CAIX on transduced skrc-59 cells (mouse, UniProt Q8VHB5 32-437)
[2] = target: monkey CAIX on transduced skrc-59 cells (monkey)
[3] = target: hamster CAIX on transduced skrc-59 cells (hamster)

Chain of mouse CAIX on transduced skrc-59 cells (Q8VHB5 32-437): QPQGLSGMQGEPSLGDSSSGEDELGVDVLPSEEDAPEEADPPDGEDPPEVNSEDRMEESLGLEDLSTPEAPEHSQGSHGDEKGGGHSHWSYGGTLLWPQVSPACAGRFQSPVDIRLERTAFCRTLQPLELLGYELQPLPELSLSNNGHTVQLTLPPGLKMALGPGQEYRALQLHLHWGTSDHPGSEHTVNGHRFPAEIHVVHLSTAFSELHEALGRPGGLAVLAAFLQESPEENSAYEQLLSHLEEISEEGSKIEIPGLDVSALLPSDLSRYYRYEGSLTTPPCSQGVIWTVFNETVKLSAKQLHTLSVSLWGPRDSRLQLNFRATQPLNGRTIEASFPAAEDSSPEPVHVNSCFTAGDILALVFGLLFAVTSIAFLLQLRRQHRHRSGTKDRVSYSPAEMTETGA

B1: anti-CAIX (G36) CAR (scFv, V domains shown)
VH: EVQLVQSGGGVVQPGGSLRLSCAASGFPFSSYAMSWVRQAPGKGLEWVSAISANGGTTYYADSVKGRFTISRDNSKNTLYLQMNSLRAEDTAVYYCANNGNYRGAFDIWGQGTMVTVSS
VL: QSVLTQPPSVSGAPGQRVTISCTGSSSNIGAGFDVHWYQQLPGTAPKLLIYGNTNRPSGVPDRFSGSKSGTSASLAITGLQAEDETDYYCQSYDSRLSAWVFGGGTKLTVLG
killing assay of anti-CAIX (G36) CAR T cells [1]: 50%
killing assay of anti-CAIX (G36) CAR T cells [2]: 100%
killing assay of anti-CAIX (G36) CAR T cells [3]: 50%
